Earlier results as cited in PMC9313406.

Biological target: ACE2 (dimeric) (Homo sapiens) (UniProt Q9BYF1)
Assay: SPR

ACE2 (dimeric) (Homo sapiens), sequence (Q9BYF1 18-740): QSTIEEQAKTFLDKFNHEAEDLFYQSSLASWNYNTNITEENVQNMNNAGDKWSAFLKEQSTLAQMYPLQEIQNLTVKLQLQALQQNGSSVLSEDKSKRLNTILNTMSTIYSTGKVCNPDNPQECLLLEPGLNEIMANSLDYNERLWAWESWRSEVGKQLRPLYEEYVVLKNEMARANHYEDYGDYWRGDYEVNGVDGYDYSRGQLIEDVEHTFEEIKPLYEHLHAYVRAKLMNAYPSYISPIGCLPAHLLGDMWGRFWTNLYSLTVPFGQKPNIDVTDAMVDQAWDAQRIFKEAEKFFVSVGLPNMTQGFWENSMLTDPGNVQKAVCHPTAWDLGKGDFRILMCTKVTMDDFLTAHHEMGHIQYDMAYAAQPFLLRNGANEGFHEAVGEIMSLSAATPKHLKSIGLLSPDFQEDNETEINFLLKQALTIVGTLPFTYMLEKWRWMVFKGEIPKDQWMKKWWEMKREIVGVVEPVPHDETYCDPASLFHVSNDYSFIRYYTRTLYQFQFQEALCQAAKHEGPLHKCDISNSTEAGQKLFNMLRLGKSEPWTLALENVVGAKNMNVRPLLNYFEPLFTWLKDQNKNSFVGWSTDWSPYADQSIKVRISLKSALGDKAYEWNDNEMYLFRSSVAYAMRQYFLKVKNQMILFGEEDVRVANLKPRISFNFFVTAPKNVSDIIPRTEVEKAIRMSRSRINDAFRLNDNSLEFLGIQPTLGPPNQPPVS

## Spike protein (from UniProt P0DTC2)
  Kd: 0.283 nM
